Source: the RNAGym collection of RNA variant scans (doi:10.1073/pnas.2313332121)
Variants at the floor of the assay were thinned out.

B1: TPR 5TU (parent)
chain: GGAUCUUCUCGAUCUAACAAAAAAGACAAAUCUGCCACAAAGCUUGAGAGCAUCUUCGGAUGCAGAGGCGGCAGCCUUCGGUGGCGCGAUAGCGCCAACGUUCUCAACUAUGACACGCAAAACGCGUGCUCCGUUGAAUGGAGUUUAUCAUG

Variants of: B1
Experiment: polymerase ribozyme fitness, log enrichment relative to wild type (log ratio); higher = more active; in vitro selection for triplet polymerase activity
Outline: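 Only genotypes with ≥10 input reads and ≥1 read per output were kept after Illumina sequencing of input and output libraries. These libraries were PCR-built, transcribed mutants of each subunit of a heterodimeric triplet polymerase ribozyme, each put through one triplicate in vitro selection round with frozen incubation at −7 °C, gel excision of extended constructs, streptavidin-bead capture and RT-PCR. Fitness is a logarithmic ratio of genotype enrichment to wild-type enrichment, from inverse-variance-weighted replicate averages, with the logarithm in base 2.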

| Variant | polymerase ribozyme fitness (log ratio) |
| --- | --- |
| C10G C18G G42U A49C G50A G74A G133C G143A | ≤ -4.2 |
| U9G C87U | -4.11 |
| U9G C35A A39G C87A C125U G143A U151A | -3.88 |
| C10U U55A G84U | -4.1 |
| C10U U13G U45A G46A G58C C63U G141U | ≤ -4.2 |
| C10A G11A A39U C93A G141U | ≤ -4.2 |
| C10U C103G C132U | ≤ -4.2 |
| C10G G25U U55A G88A A106G U130A A150G | ≤ -4.2 |
| U9G A16U G80A G83C | -4.08 |
| C10G G92U | -3.24 |
| C10G G92C | -3.61 |
| U9G A17U G94A | ≤ -4.2 |
| U9G U33G G59A G140U | ≤ -4.2 |
| C10A C54A | ≤ -4.2 |
| U9G A20C C32G A89C U144A | ≤ -4.2 |
| U9G U31G G42U U53A G58C | ≤ -4.2 |
| C10A C51U C93U U111G | ≤ -4.2 |
| U9G A49U C85U | ≤ -4.2 |
| U9G C18G A30U C35G C87G A147G | ≤ -4.2 |
| C10U A29U G92A C99A U145C | ≤ -4.2 |
| C10A A106G G126U | ≤ -4.2 |
| C10G C36U U55A C95U G133U | ≤ -4.2 |
| U9C U53A G58U A60C A66C A147C | ≤ -4.2 |
| C10G C38A G88A A97U | ≤ -4.2 |

| Variant | polymerase ribozyme fitness (log ratio) |
| --- | --- |
| C10U G50A U55G A91G G143C | ≤ -4.2 |
| U9G A23U G58A G59U C79A G81U C85A A120C U139C | ≤ -4.2 |
| C10G A16U C54U U56A G59A G88C C105G A110G A119U C123A U145G U148C | ≤ -4.2 |
| C10U A24U U33G A41G U56A C85U A91C | ≤ -4.2 |
| C10U G88U | ≤ -4.2 |
| C10G U13G C87U C125U | ≤ -4.2 |
| U9G A16C A30C G34A G58U C93G C105A A110G C118U C149U | -4.17 |
| G11A A21U C85U | -1.32 |
| U9G A12C A16U U31A G62A G71A G80C C87U C108U | ≤ -4.2 |
| C10A C95U | -3.57 |
| U9G C54G G62A C75A G81C C93G C96A C103G C118U | ≤ -4.2 |
| U9G A19C U55A | ≤ -4.2 |
| C10U G59A C93U A137G | ≤ -4.2 |
| U9G G34U C85A U139A | ≤ -4.2 |
| C10G A19U G46A C85A C105U | ≤ -4.2 |
| C10A A17U C36U C76U G84U U101A U104G C108U A121C | ≤ -4.2 |
| C10U G42C G83U A97G G124U G133C | ≤ -4.2 |
| G11A A12G C38U A41U C69U G83U | -3.51 |
| C10U C51G A52U C87A C123U G141C | ≤ -4.2 |
| C10U A16G C43G U44G U77A U82A A120C | ≤ -4.2 |
| C10U C54A G88U A115G | ≤ -4.2 |
| C10U A23U U90G | ≤ -4.2 |
| C10A A28U G58A C96U A122G G124C | ≤ -4.2 |
| C10G A47U C54A C72U G81A G92C G133U U135G | ≤ -4.2 |

| Variant | polymerase ribozyme fitness (log ratio) |
| --- | --- |
| G11A A21C A24C C43U C85A U111C | ≤ -4.2 |
| C10A A16G C32G G50A G133C | ≤ -4.2 |
| C10G U55G C103A | ≤ -4.2 |
| C10G G42U G58A G86U A97U U101G G141C | ≤ -4.2 |
| C10G A20U A52C G86A G92U A115U G152A | ≤ -4.2 |
| C10A A23U C35G C95G G128A | ≤ -4.2 |
| C10U A16C A39C G50U U56A G67C G94C C108U | ≤ -4.2 |
| C10G A23C U31G C75U C87G C93A G133U G136U | ≤ -4.2 |
| G11A A19U U56G U82C G84U C95U | ≤ -4.2 |
| C10U G50C A64C G65C C93A A142U | ≤ -4.2 |
| C10U C32U G68U G74A U78A G92A C125A G140U U145G | ≤ -4.2 |
| C10A U13C A30C G83A G88A A98U C125A A147G | ≤ -4.2 |
| U9G A16G C18A C63U | ≤ -4.2 |
| C10G A41U | -4.05 |
| C10U G92A G141C | -3.99 |
| C10A C79A A97G A150G | ≤ -4.2 |
| U9G A40C | -3.48 |
| U9G G11C C76A G92C U134C U139G A150G | ≤ -4.2 |
| C10U A22U C79A G83C A106U | ≤ -4.2 |
| C10U A22C C36A A49C U53C C57G G58A G86U C93U G117U | ≤ -4.2 |
| C10G A12G A120U U135C | ≤ -4.2 |
| C10U G11U A29C U44G U55A G68A G71U G80A C93A A98U A138C | ≤ -4.2 |
| C10A A12U A41G C96A A107C C114A | ≤ -4.2 |
| G11A A17G U31A U53G C54U A64G | ≤ -4.2 |

| Variant | polymerase ribozyme fitness (log ratio) |
| --- | --- |
| U9C U56A G83A C87U | ≤ -4.2 |
| C10A A12G A23C U55A | ≤ -4.2 |
| C10A A41G C103A A110G | ≤ -4.2 |
| C10G U44G A49C A52C A64C G74C U104G A122G G141A | ≤ -4.2 |
| C10G G68A C79G | ≤ -4.2 |
| U9G C14A C85U G141U | -4.19 |
| C10U G11A A19U U55A C75G G83U | ≤ -4.2 |
| C10G A20U C35A C85G A142C | ≤ -4.2 |
| C10A C96U G143A | ≤ -4.2 |
| C10G C54U G62C G86U U146C | ≤ -4.2 |
| C10U A40G C105G | ≤ -4.2 |
| U9G C10A C43U C57G C99A | ≤ -4.2 |
| C10U C123U G141C | -4.03 |
| C10G A22G A39U U109C | ≤ -4.2 |
| C10A C54A A91C C105A C129A G143C | ≤ -4.2 |
| C10G C76U | -3.93 |
| G11A A17C A49C C85U A91U G136U | ≤ -4.2 |
| C10G C32A G86U G92C G124A A137G | ≤ -4.2 |
| C10U U13G C27A U33A C75G G88A A122U | ≤ -4.2 |
| U9C U44A G46C A47G C85U A121G | ≤ -4.2 |
| C10U A24U C35U A91G C93G A98C C118U | ≤ -4.2 |
| U9G A23C U56A A73U G86C | ≤ -4.2 |
| U9G U53A | -3.81 |
| C10G G92C U111A C114A | ≤ -4.2 |

| Variant | polymerase ribozyme fitness (log ratio) |
| --- | --- |
| C10A G50A A60G G86A G133C | ≤ -4.2 |
| C10U A107G | ≤ -4.2 |
| C10U C32U A49C U134C | ≤ -4.2 |
| C10U A37C C75U C95G | ≤ -4.2 |
| C10U A23G G50U U53A G71C C87A A120U | ≤ -4.2 |
| C10U C69U A147C U148G C149G | ≤ -4.2 |
| C10G U44G U56G C57U A66C C87U A106G A142U | ≤ -4.2 |
| C10U U45A C54A G71C G136U | ≤ -4.2 |
| C10A A28G U56G C85A | ≤ -4.2 |
| C10U U56A C93U A122U C149U G152U | ≤ -4.2 |
| U9C U55G | -3.53 |
| C10U G50U C95U | -3.16 |
| C10A A23C G25C G92A A113U | ≤ -4.2 |
| C10A G92A | -4.08 |
| C10G A17C C36U G48A A64U G88C C118G | ≤ -4.2 |
| C10U A16G G84U G140U | ≤ -4.2 |
| C10G C27U U61A C99A | ≤ -4.2 |
| C10U U15C A29U C95U | ≤ -4.2 |
| C10U G84A | -3.34 |
| C10U A41U G92C U139G | -4.06 |
| C10U A17G A52C C75U C99U U102C U127A U135A | ≤ -4.2 |
| C10G A21U A22U U55A G59C A142C | ≤ -4.2 |
| C10A U33G A60G C75A A106U G117U A137C U144A | ≤ -4.2 |
| U9G C96U | -3.76 |

| Variant | polymerase ribozyme fitness (log ratio) |
| --- | --- |
| C10A U31G C35G G42C C69U G92A C95G G100A G143A | -3.74 |
| C10A G81C | ≤ -4.2 |
| C10G A73U C76A C85G | ≤ -4.2 |
| C10U C57U C96U | -3.83 |
| C10G A41C A73U U134A | ≤ -4.2 |
| C10G A29U C95U C108A G117A G143C | ≤ -4.2 |
| C10U G58U G83A A89C A110G U148A | ≤ -4.2 |
| C10A G34U A40U C57U U78G C79U G84C C85A U104A A120C | ≤ -4.2 |
| C10U C27U U55A G59C G84A | ≤ -4.2 |
| C10U G42C G88U C105G G143U | ≤ -4.2 |
| C10U G94A U148G | ≤ -4.2 |
| C10A A20G A23C A24U A26G C85G A91G G100U A115G | ≤ -4.2 |
| U9G C18U U45G G48A C76U | ≤ -4.2 |
| C10A A19C A29U C36U C57U G58A A66C G67C U82G G84U U109A | ≤ -4.2 |
| U9G C51G G84A G141C | ≤ -4.2 |
| C10G U33A C69A C96G | ≤ -4.2 |
| C10U U13C A17U C76A C105U | ≤ -4.2 |
| U9G G74A G84A A107G | ≤ -4.2 |
| C10A C69U | ≤ -4.2 |
| C10G G46A U55A G65A A73G U134A | ≤ -4.2 |
| U9G C85A | -3.76 |
| G11A A21U C51U U53A U55G C57U C96A A110C | ≤ -4.2 |
| U9G A73U C87U U102A C105G C108A | ≤ -4.2 |
| C10U C51G U53A U90G | ≤ -4.2 |

| Variant | polymerase ribozyme fitness (log ratio) |
| --- | --- |
| C10G U53C C93U A107G | ≤ -4.2 |
| U9G A29C G59A C76U C87G A120C | ≤ -4.2 |
| C10U C35U | -3.04 |
| C10U U53C U55A G86A G88C | ≤ -4.2 |
| C10A U33A U78G U90A G140A | ≤ -4.2 |
| U9G A20U G84A U102C A115G | ≤ -4.2 |
| C10A C85G G141U | ≤ -4.2 |
| U9G G92A C116U C125U U134C | ≤ -4.2 |
| U9G A21C C35U C85G | ≤ -4.2 |
| U9G C32G G71A | ≤ -4.2 |
| C10U U55A | -2.91 |
| C10U A17U A41C G50C G84A | ≤ -4.2 |
| C10G U13C C85G U109G A115U G140U | ≤ -4.2 |
| C10U U45A C99A | ≤ -4.2 |
| C10U A29G G59A G81A A97G | ≤ -4.2 |
| C10G U53A C57U G86C A106G C108G A113G U127G | ≤ -4.2 |
| C10U U13C A37C G70A C79A G84A A107C | ≤ -4.2 |
| U9G A37U C57U C85U G128A G141A U146A | ≤ -4.2 |
| C10G C32G C38G U55G C87A G92A C125G G126A | -4.1 |
| G11A A16U A24U C85A A142C | ≤ -4.2 |
| C10A C14G U77A C85A G92A A110G A122G | ≤ -4.2 |
| C10A C32A U56G G80C U82G C87U A98U | ≤ -4.2 |
| C10G A16U A49C C51G A52U U56A C103G U146A | ≤ -4.2 |
